Experimental findings from US20080085859A1, “Drug Promoting Ceramide Transport, Base Sequence for Producing the Drug, Method of Measuring Activity of Promoting Ceramide Release and Method of Measuring Activity of Promoting Intermembrane Ceramide Transfer” (JAPAN SCIENCE AND TECHNOLOGY AGENCY, priority 2003, published 2008) are described below.

The nature of test [1]: ceramide release promotion activity from membrane. The test is classed as biochemical. The following applies: 14C-ceramide in phosphatidylcholine/phosphatidylethanolamine membrane, 37° C. 30 minutes, 14C in supernatant; FIGS. 14, 16. Here is the method:
Hereinafter, the standard method will be described in detail, however, even if the described conditions are changed, a method of detecting ceramide release promotion activity having means for separating releasing ceramide by a centrifugation principally belongs to the present invention. The lipid membrane containing ceramide was prepared so that it contains 12.5 nCi (225 pmol) per sample of [palmitoyl-1-^14C]N-palmitoyl-D-ethyro-sphigosine (hereinafter, may be referred to as ^14C-ceramide) on the basis of the mixed lipid consisting of phosphatidylcholine and phosphatidylethanolamine derived from egg yolk at the ratio of 4:1 and its concentration becomes 2.5 mg/mL. This lipid membrane is required at the rate of 20 μL per one sample of the activity measurement. […]
hCERT protein or its recombinant protein described above as a protein sample to be targeted (under the standard conditions, the amount of protein corresponding to 450 picomoles, which is 2-fold molar equivalent amount of ceramide contained in the donating membrane was used) were messed up to 30 μL using the buffer 2 [50 mM Hepes-NaOH buffer (pH7.4) to which 100 mM NaCl and 0.5 mM EDTA have been added]. […] The activity for promoting ceramide release with hCERT was calculated by measuring the radioactive activity of ^14C in the supernatant fraction using a liquid scintillation counter. […]

The test system of test [2] is LY-A2 cell. As to the kind of experiment: content of phospholipids of cell. The class given is cell-based, Chinese hamster. The note with it: LY-A2/hCERT cell, FIG. 3(B). As to the method: 3×10^6 cells per culture dish having the 150-mm diameter of CHO-K1 cell, LY-A2 cell, or LY-A2/hCERT cell was inoculated in 20 mL of F12/NBS medium, and cultured at 33° C. overnight. After it was washed twice in 10 mL of serum-free F12 medium, it was further cultured for 2 days in 20 mL of Nutridoma BO medium. After it was washed in PBS, the cells were collected by a method of scaping, suspended again in PBS, and lipid was extracted by a method described in Bligh et al (Can. J. Biochem. Physiol. 37, 911-917, 1959). The extracted lipid was separated using TLC whose development solvents were chloroform/methanol/acetic acid/H2O (volume ratio, 25:15:4:2). After the separated phospholipid on the TLC plate was colored by iodine vapor, the band of the respective separated phospholipid was scraped out from the plate. The scraped separated phospholipid was quantified by measuring phosphorus content by a method of Rouser et al (Lipids 1, 85-86, 1966).

Test [3] relates to LY-A2 cell. As to the kind of experiment: metabolism labeling of lipid using [14C] serine and [14C] choline. The class given is cell-based, Chinese hamster. The following applies: LY-A2/hCERT cell. Here is the method:
CHO-K1 cell, LY-A2 cell, and LY-A2/hCERT cell were inoculated at the cell density of 1.0×10^6 per culture dish having the 60-mm diameter, and cultured at 33° C. overnight. Subsequently, it was exchanged with […] of Nutridoma medium, after [^14C] serine (0.75 μCi) or [^14C] choline (1.0 μCi) have been added, in the case where [^14C] serine is added, it was cultured for 2 hours, and in the case where [^14C] choline is added, it was cultured at 33° C. for 5 hours. However, in the case where the influence on (1R, 3R) HPA-12 is analyzed, after it was pretreated at […] for 15 minutes in 1.5 mL of Nutridoma medium to which 1 μM of (1R,3R) HPA-12 has been added (in control experiment, dimethylsulfoxide used for dissolving a drug was added at the concentration corresponding to 0.01% of the final concentration), [^14C] serine was added, and cultured at 33° C. for 2 hours. After the cell was washed twice in 2 mL of cooled PBS, dissolved in 900 μL of sodium dodecyl sulfate (SDS), then, 800 μL and 20 μL of dissolved matter were used for determining lipid extraction and protein concentration. For the purpose of analyzing lipid labeled with [^14C] serine, the lipid was separated by TLC by making acetic methyl/n-propanol/chloroform/methanol/0.25% KCl (25:25:25 10:9, volume ratio) development solvent. The radioactive lipid separated on the plate was detected and analyzed by an image analyzer.

For test [4], the system named is LY-A cell. As to the kind of experiment: recovery of ceramide transport function of LY-A cell by hCERT stable expression. The test is classed as cell-based, Chinese hamster. The note with it: FIG. 9. From the text:
Also in the original LY-A cell to which retrovirus receptor has not been introduced, it has been ascertained as described below that ceramide transport function is recovered by hCERT expression. hCERT inserted pcDNA3.1/Neo plasmid was introduced into LY-A cell by performing lipofection, after G418 resistant cell was selected, transformed strain LY-A/hCERT was purified by a limited-dilution. Subsequently, the measurement of the sensitivity to MCD, metabolism labeling experiment of lipid using [^14C] serine and [^14C] choline and cell labeling using C5-DMB-Cer and fluorescene microscopy observation were similarly performed.

B1: hCERT protein: human CERT protein having an amino acid sequence of SEQ ID NO:1 (protein)
chain: MSDNQSWNSSGSEEDPETESGPPVERCGVLSKWTNYIHGWQDRWVVLKNNALSYYKSEDETEYGCRGSICLSKAVITPHDFDECRFDISVNDSVWYLRAQDPDHRQQWIDAIEQHKTESGYGSESSLRRHGSMVSLVSGASGYSATSTSSFKKGHSLREKLAEMETFRDILCRQVDTLQKYFDACADAVSKDELQRDKVVEDDEDDFPTTRSDGDFLHSTNGNKEKLFPHVTPKGINGIDFKGEAITFKATTAGILATLSHCIELMVKREDSWQKRLDKETEKKRRTEEAYKNAMTELKKKSHFGGPDYEEGPNSLINEEEFFDAVEAALDRQDKIEEQSQSEKVRLHWPTSLPSGDAFSSVGTHRFVQKVEEMVQNHMTYSLQDVGGDANWQLVVEEGEMKVYRREVEENGIVLDPLKATHAVKGVTGHEVCNYFWNVDVRNDWETTIENFHVVETLADNAIIIYQTHKRVWPASQRDVLYLSVIRKIPALTENDPETWIVCNFSVDHDSAPLNNRCVRAKINVAMICQTLVSPPEGNQEISRDNILCKITYVANVNPGGWAPASVLRAVAKREYPKFLKRFTSYVQEKTAGKPILF
modifications: HeLa cell
For the molecule B1, the “activity for promoting ceramide release” value in test [1] was “detected depending on the amount of hCERT and the length of incubating time”. The SM content result in test [2] was “recovered to the wild type level”. Also, in test [3] (radioactive choline, FIG. 4(B)), the PC synthesizing rate result is “at the wild type level” and the SM biosynthesizing rate result is on record as “recovered to the wild type level”. Besides, the SM biosynthesis speed entry in test [3] (radioactive serine, FIG. 4(A)) is listed as “recovered to the wild type level”. Also, the “reactivity with respect to MCD, SM biosynthesis, C5-DMB-Cer transfer from ER to Golgi apparatus region” value in test [4] is given as “recovered to the nature of the wild type”.
